32 sequences from the domain aggregation screens of Martell et al. (2025) can be followed below.

This data set in a line: soluble fraction after stress (log2 fold change); higher = more stays soluble; pooled small domains, quantitative proteomics. As to conditions: stress: 50 degC. Summed up:
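The measure of aggregation propensity here is the base-two logarithm of the fold change in the soluble amount of each protein after stress. A higher value means more of that protein stays in solution. Stress was applied at 50°C to pooled libraries of small protein domains, read out by high-throughput quantitative proteomics.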

For the sequence “HMTIAEGLIFRFTEPFKPIDQYTYYIMGDNKVEQIPNFKTLEVMLAQRNQNYLSVRVIEKSQLDDILKEF”, the “soluble fraction (log2)” value was -4.04. The same measure for “HMSDVTPDVVRALRKRLKLTQVQFGEIFGMTSKKVSAWEHGKAEPTEEQKQKIQSLLKENNEQ”: -0.0029; for “HMIHEQSLHKIRNFIGSLPESLRTAFTLREQDGLSYEEIGKITNTPIGTVRSRIYRARESILDHINQE”: -0.874; for “HMKDLQAISERMEEIISFAKANDNEISLFIVQDIIKNKKTGIDEDLLNMALYQIKEQGIKVLPA”: -0.0793. Then “HMKGAADPAIKQKVLDYLDTVEKAKSKEIAKAISEEKSAVDLAVKELAFEDKVEYLYITTTFVALKGKVA”, with -0.168; and “HMKEIIFRGIGEFILDYKSLVIEFLNKNNYANLSMDAPVDEVNKAVANNMLNEDFVTELLLFQRRVE”, with -1.2. The same measure for “HMRTLGADLRALRKARGLTLAGMADNMGKSVGWMSQIERDISEPSISDLRALAKLLDVSVSSLFR”: -2.23; for “HMITPAGVPPALLPVFDQFTLPDGTLRRGAVAAALRALYGPDAPQSGKRYQMEYDRVMAWHSQYFTSLH”: -0.34; for “HMDYIGIQAAKEAALKDADISSEQAVFTMAELDNKNNIFYYQIMFTENGTEYRYDIDALTGVIIEKNHFF”: -1.96.

With “HMEVDWLEVEKVIVSSSYSWMENSPKVKLLQEYIGVTADGIYGLGTWGAHRTHAVDLGFINLSYPIP”, the “soluble fraction (log2)” value was -0.127. Then “HMLLTDGLERRIDGDKNLHIRISLPMLVKGQIKLAKSGNNESTVKGIFKIESYPGSHPRDVVTEIIEG”, with -0.0938. The same measure for “HMIIIMKMGADESQVQETIKRIKDLGFNTHLSKGENRTIIGVIGDVSSIDESDVERLRATPYIAEVVRVS”: 0.0267; for “HMPIRVGDAFESLAGVFPDEYNKALRKSTKKPVFFVPVKVEAGSGALRQKGKITFIVKDGRIDAIQIAL”: -1.21. Consider “HMAKRINVKLIMELSAGGLTQNEIASSRHFSKTSVNLVLKTARELNVSAADLREMSPEEAYRLFFPEK”, for which the “soluble fraction (log2)” value is -1.43.

On to “HMYDDLEPFDANGRLRWSDKELILAFGRHRGVTLQTLELNDPGYLRWLLSGNGPLEQQDRKRLEDILES”, for which the “soluble fraction (log2)” value was -1.27. Take “HMEISAIIGNNLQQLRKEQGLSLDQLALKTGVSKAVLSQLENGKANPTINTIWKIATALHVTYSALLEPP”: the “soluble fraction (log2)” value was -0.391. As for “HMETEQVEMIRVVGMHVDEAKKALLDLGLSPEIKYEESSSYDAGTVLRASVQDGLMIDKGTNIVLTVAEA”, the “soluble fraction (log2)” value was 0.121. The same measure for “HMKIPPIMFVRAIMVAGRQSMAIMDIEGVGTGIIVRSGYSFSNGEGKVVRIGPDKVTVNWSGKHLDLAPG”: -0.615.

“HMEPLPDIPRGTRVSHQTAPADGDMPERRETGWTMTEPIRAQDGLAYVGVSVYGRGVVMLPVNSLSII”: the “soluble fraction (log2)” value was -0.319. For the sequence “HMQIVPVDYSTFMQSIDDKTVDHVEIQSNQILYTVKDDHKKYKTGIMNDPTLAQRLMESGATFTQD”, the “soluble fraction (log2)” value turned out to be 0.0939. The same measure for “HMGQLIVTIPNFERRPAEQAIQKLEELGLVPEEKQIYHDDIPAGSVIYTDPSKDSQVNAGTKVYVYVSLG”: -0.116; for “HMEKGLQYRRTDRAIMNAFIKLVNQGSFEKLTVQEILDEALVSRNTFYAHYRDIYDLMDALSN”: -1.55. The same measure for “HMNKADFLRKLDRELSVLDQEERKEILSFYEERFYTGTNYENKTELDIINELENPEIIAKNVLEEYGV”: -0.154; for “HMKGVSFEEIERAVRTAQNPEADETAQQHAGMVFSRMEGNELFDKLVQSSSTIGKKITGLMDYYL”: -0.0889. The same measure for “HMAVGTASNLIGKDIEAYAPIDGSQSSDDTKTISGKVESVHIKDGVVYMNVKDSQSENIIEVEYGALIKVN”: -0.498; for “HMRSLAVGNVVSEEGKPSYLLLDSKRTMLFSENSIPSLYLEDGRRVIVNYTLLDEDYQGYDFRIHVNDIDT”: -0.113; for “HMAIQGVRLYERTLETGDPWLDRPLSTLSTGTRLIILVRRGGDVLIPKGDTVLLAGDTLVINDS”: -3.24. “HMIGELVVEDLAAASEINVDTIRYYQRLGLLEPPRRRGRRAVYDHTHLERLAEIRRLAGAGFTLAQIGRLK”: the “soluble fraction (log2)” value was -2.53.

Take “HMSQNISSTKLIPENIKIGMSVFVIPLQQKGIVQSLPNRSKEVLVQIGNAKINVKINNLKLIED”: the “soluble fraction (log2)” value was found to be 0.295. With “HMLPRLVLSPGTEVLATVMGKYENGMSLVKISSHLFAMDLPSRVQVGDSLRMTFLHQDARPTFALA”, the “soluble fraction (log2)” value is -0.779. On to “HMRQQLAEILQKAVDNLPEAQRLVWLLRDKSDMTFKEIAEDLQLTEANVRVLLHRARLKLLAVINQYEE”, for which the “soluble fraction (log2)” value is -1.38. Take “HMTPKVDLTVAEDGSASAVIAGLRVEIDAAGKVTAVAPADGTTDLSSVAPEAVKEAMDNALAAYTASKG”: the “soluble fraction (log2)” value came to 0.0555.
